The values that follow come from US5686592.

pKd: −log10 of the molar value.

The pKd is the negative decadic logarithm of the Kd, by convention in mol/L. A lower pKd goes with a large Kd.

What all share (assay): filter
The test system of series [1] is human IgE (Homo sapiens), P01854-1.
Series [2] deals with T1, rat IgE (Rattus norvegicus) (UniProt P01855).
T1 sequence: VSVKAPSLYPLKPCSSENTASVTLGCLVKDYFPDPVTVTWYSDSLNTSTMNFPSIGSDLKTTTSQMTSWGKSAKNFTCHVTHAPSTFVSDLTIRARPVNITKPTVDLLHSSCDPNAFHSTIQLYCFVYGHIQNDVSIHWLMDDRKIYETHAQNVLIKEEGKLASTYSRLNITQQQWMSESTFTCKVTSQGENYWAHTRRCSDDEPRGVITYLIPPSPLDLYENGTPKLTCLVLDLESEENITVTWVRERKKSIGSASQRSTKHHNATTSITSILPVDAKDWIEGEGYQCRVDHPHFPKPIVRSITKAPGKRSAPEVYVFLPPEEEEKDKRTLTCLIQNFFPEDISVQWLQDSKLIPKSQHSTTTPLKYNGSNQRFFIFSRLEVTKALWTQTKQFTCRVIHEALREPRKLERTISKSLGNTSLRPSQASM
The settings on record: 2'-NH2 on all C and U; specificity control.

The next series addresses T2, mouse IgE (Mus musculus) (UniProt P06336).
T2 sequence: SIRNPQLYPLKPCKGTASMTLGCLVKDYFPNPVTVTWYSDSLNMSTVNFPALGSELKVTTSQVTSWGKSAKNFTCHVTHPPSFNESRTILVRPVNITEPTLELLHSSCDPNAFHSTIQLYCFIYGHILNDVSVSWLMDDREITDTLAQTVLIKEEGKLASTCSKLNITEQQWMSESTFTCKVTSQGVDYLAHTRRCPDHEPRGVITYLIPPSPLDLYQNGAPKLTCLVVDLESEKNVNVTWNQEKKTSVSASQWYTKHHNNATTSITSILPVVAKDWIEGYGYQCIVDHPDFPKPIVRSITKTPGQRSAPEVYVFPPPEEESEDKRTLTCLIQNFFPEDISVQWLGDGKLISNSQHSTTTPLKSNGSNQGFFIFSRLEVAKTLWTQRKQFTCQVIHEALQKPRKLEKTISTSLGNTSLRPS

The subject of another series is human IgG (Homo sapiens). The settings on record: specificity control.
[3] abbreviates: 2'-NH2 on all C and U, starting pool.
The mark [4] stands for this setting: 2'-NH2 on all C and U, specificity control.

human IgE (Homo sapiens), P01854-1, sequence (P01854 other isoform, or with tags, fused parts or gaps): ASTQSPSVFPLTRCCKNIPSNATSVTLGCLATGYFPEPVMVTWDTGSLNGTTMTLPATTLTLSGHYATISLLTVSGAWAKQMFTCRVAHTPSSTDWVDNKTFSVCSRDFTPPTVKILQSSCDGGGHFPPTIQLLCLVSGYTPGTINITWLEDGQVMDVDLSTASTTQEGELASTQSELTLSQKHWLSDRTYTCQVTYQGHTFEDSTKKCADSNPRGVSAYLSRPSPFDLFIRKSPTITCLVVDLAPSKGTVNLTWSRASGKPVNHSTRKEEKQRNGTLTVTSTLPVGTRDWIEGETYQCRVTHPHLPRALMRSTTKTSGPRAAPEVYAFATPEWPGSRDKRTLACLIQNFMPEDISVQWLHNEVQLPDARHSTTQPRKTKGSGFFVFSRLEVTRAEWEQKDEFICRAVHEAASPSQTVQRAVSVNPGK

Sequence “GGGAGGACGAUGCGGNNNNNNNNNNNNNNNNNNNNNNNNNNNNNNNNNNNNNNNNCAGACGACUCGCCCGA [40N7 starting RNA pool]” gave a pKd in series [1] (setting [3]) below 4.30.
Regarding “GGGAGGACGAUGCGGNNNNNNNNNNNNNNNNNNNNNNNNNNNNNNNNNNNNNNNNNNNNNNNNNNNNNNNNNNNNCAGACGACUCGCCCGA [60N7 starting RNA pool]”, the pKd in series [1] (setting [3]) is below 4.30.
As to “GGGAGGACGAUGCGGGUGUGAAUGGUGUUGUGAGG [IGEL1.2]”, the pKd (in series [2]; with mouse IgE (Mus musculus) (setting [4])) was below 5.30 in each case.
Regarding GGGAGGACGAUGCGGGUGUGGGGCG [IGEL2.2], the pKd (in series [2]; with mouse IgE (Mus musculus) (setting [4])) was below 5.30 each time.
Take “CTACCTACGATCTGACTAGCNNNNNNNNNNNNNNNNNNNNNNNNNNNNNNNNNNNNNNNNGCTTACTCTCATGTAGTTCC [Round 15 mouse IgE DNA pool]”: the figures for the pKd (in series [1] (mouse-IgE-enriched pool against human IgE); with mouse IgE (Mus musculus) (enriched pool)) were below 4.30 and 7.70, respectively.
For the sequence “GGGGCACGTTTATCCGTCCCTCCTAGTGGCGTGCCCC [D17.4]”, the pKd in the series with mouse IgE (Mus musculus) (specificity control) and in the series on human IgG (Homo sapiens) was below 5.00 each time.
Consider “CTACCTACGATCTGACTAGCNNNNNNNNNNNNNNNNNNNNNNNNNNNNNNNNNNNNNNNNGCTTACTCTCATGTAGTTCC [Round 15 human IgE DNA pool]”, for which the pKd in series [1] (enriched pool, modified PBS, 1 mM Mg2+, 37 C) is 8.00.
“CTACCTACGATCTGACTAGCNNNNNNNNNNNNNNNNNNNNNNNNNNNNNNNNNNNNNNNNGCTTACTCTCATGTAGTTCC [40NBHI starting DNA pool]”: the pKd was below 4.30 in series [1] (starting pool) and below 6.00 with mouse IgE (Mus musculus) (starting pool).
